According to patent publication US12227551B2, “Membrane bound IL12 compositions and methods for tunable regulation” (Obsidian Therapeutics, Inc., priority 2018, dated 2025):

Key:
T cells = test: Percentage of CAR positive cells after 10 days expansion (Example 7); type: cell-based; details: T cells expanded for 10 days
Nalm-6 cells = test: 48 hour cytotoxicity assay, T cells co-cultured with Nalm-6 NucRed cells, Incucyte (Example 7; Table 21); type: cell-based
Method: For cytotoxicity assays, T cells were thawed and co-cultured with Nalm-6 cells (stably expressing NucRed®) at different T cells to Nalm-6 cell culture ratios. Target cell viability was determined by measuring cellular fluorescence over time using an Incucyte assay and the results are shown in Table 21.

CD19+ Nalm6 tumors [1] = test: Nalm6-Luc tumor burden by BLI, mean total flux, NSG mice given CAR-T cells (Example 9; Table 28); type: in vivo
Method: (§1) The study was designed to determine if membrane bound IL12 (mbIL12) expressed on CAR-T cells via a CD8 TM domain and CD8 Hinge Region promotes CAR T cell expansion in cis, promotes non-CAR-T cell expansion in trans, and/or increases in vivo CAR T cell efficacy against CD19+ Nalm6 tumors. To test in vivo anti-tumor activity, experiments were performed in NSG mice. Nalm6 cells were transfected with Redifect Red-Fluc (Perkin Elmer) under selection using Puromycin for ˜2 months to generate a line that stably expresses the luciferase reporter; thereafter named Nalm6-Luc. Ten days before tumor implantation, Nalm6-Luc cells were thawed and cultured in puromycin-containing media. On day 0, cells were counted, resuspended in PBS and injected into NSG mice via tail vein. On day 6, mice were imaged for bioluminescent intensity (BLI) and sorted into groups based on their tumor size ensuring that all groups had the same sized tumors. Human T cells were transduced with one of the following constructs as shown in the study design in Table 27:
(§2) Next, holding total CAR+ T cell dose constant at either 300,000 or 1 million cells per animal, transduced T cells were intravenously infused into mice on day 7. Tumors were monitored in mice using BLI and the mean of the Total Flux (photons/second) was calculated for each group as an indicator of tumor burden (Table 28). In order to track the trans effect of IL12 expressing CART cells on T cells that lack expression of IL12, 5 million GFP+ T cells (negative for IL12) were co-infused with the IL12-expressing CAR+ T cells, and peripheral blood draws taken over time to evaluate the effect of IL12 on phenotypic changes in GFP+ T cells by flow cytometry analysis.

CD19+ Nalm6 tumors [2] = test: Kaplan-Meier animal survival, Nalm6-Luc NSG model (Example 9; Table 29); type: in vivo, NSG mice
Method: as §1
Percent survival was also measured for each group during the course of the experiment and the following numbers were obtained as shown in Table 29: […]

[3] = tested on: CAR+ T cells and GFP+ T cells; test: CAR-T and GFP+ T cell expansion in peripheral blood by flow cytometry (Example 9; Table 32); type: in vivo, NSG mice; details: cell numbers in 50 uL blood
Method: as §2
Thus, anti-tumor efficacy (Table 28) appears to correlate with CAR-T cell expansion.

CD19+ Nalm6 tumors [4] = test: Kaplan-Meier animal survival (Example 10; Table 35); type: in vivo, NSG mice
Method: as §1, with “To” for “The study was designed to determine if membrane bound IL12 (mbIL12) expressed on CAR-T cells via a CD8 TM domain and CD8 Hinge Region promotes CAR T cell expansion in cis, promotes non-CAR-T cell expansion in trans, and/or increases in vivo CAR T cell efficacy against CD19+ Nalm6 tumors. To”, “ensure” for “ensuring”, “33:” for “27:”
Percent survival was also measured for each group during the course of the experiment and the following numbers were obtained as shown in Table 35: […]

[5] = Plasma IL12 and IFNgamma levels (Example 10; Table 36); type: in vivo, NSG mice; details: day 14 post T cell transfer; 1 million CAR+ T cells
Method: as §1, with “To” for “The study was designed to determine if membrane bound IL12 (mbIL12) expressed on CAR-T cells via a CD8 TM domain and CD8 Hinge Region promotes CAR T cell expansion in cis, promotes non-CAR-T cell expansion in trans, and/or increases in vivo CAR T cell efficacy against CD19+ Nalm6 tumors. To”, “ensure” for “ensuring”, “33:” for “27:”
Thus, anti-tumor efficacy (Table 34) appears to correlate with plasma IL12 and IFNgamma levels.

B1: OT-001356: CD19 CAR; stop; IRES; secreted IL12 (p40 23-328; (G4S)3; p35 57-253); nucleic acid SEQ ID NO: 482 (protein)
chain: IWELKKDVYVVELDWYPDAPGEMVVLTCDTPEEDGITWTLDQSSEVLGSGKTLTIQVKEFGDAGQYTCHKGGEVLSHSLLLLHKKEDGIWSTDILKDQKEPKNKTFLRCEAKNYSGRFTCWWLTTISTDLTFSVKSSRGSSDPQGVTCGAATLSAERVRGDNKEYEYSVECQEDSACPAAEESLPIEVMVDAVHKLKYENYTSSFFIRDIIKPDPPKNLQLKPLKNSRQVEVSWEYPDTWSTPHSYFSLTFCVQVQGKSKREKKDRVFTDKTSATVICRKNASISVRAQDRYYSSSWSEWASVPCSGGGGSGGGGSGGGGSRNLPVATPDPGMFPCLHHSQNLLRAVSNMLQKARQTLEFYPCTSEEIDHEDITKDKTSTVEACLPLELTKNESCLNSRETSFITNGSCLASRKTSFMMALCLSSIYEDLKMYQVEFKTMNAKLLMDPKRQIFLDQNMLAVIDELMQALNFNSETVPQKSSLEEPDFYKTKIKLCILLHAFRIRAVTIDRVMSYLNASGS
Percentage of CAR positive cells (T cells): 45.3% | Average Total Nalm6-NucRed Area after 48 hour at E:T ratio of 3:1 (Nalm-6 cells; E:T 3:1, 48 hour): 33,079 | Average Total Nalm6-NucRed Area after 48 hour at E:T ratio of 10:1 (Nalm-6 cells; E:T 10:1, 48 hour): 32,236 | Mean Total Flux (Nalm-6 Tumor Burdon) (CD19+ Nalm6 tumors [1]; day 6 post tumor implant, day −1 post T cell transfer (before infusion), cell dose not given): 1069500 photons/second | Mean Total Flux (Nalm-6 Tumor Burdon) (CD19+ Nalm6 tumors [1]; day 13 post tumor implant, day 6 post T cell transfer): 17363750 photons/second | Mean Total Flux (Nalm-6 Tumor Burdon) (CD19+ Nalm6 tumors [1]; day 20 post tumor implant, day 13 post T cell transfer): 555500 photons/second | Mean Total Flux (Nalm-6 Tumor Burdon) (CD19+ Nalm6 tumors [1]; day 27 post tumor implant, day 20 post T cell transfer): 769125 photons/second | Mean Total Flux (Nalm-6 Tumor Burdon) (CD19+ Nalm6 tumors [1]; day 34 post tumor implant, day 27 post T cell transfer): 743125 photons/second | Mean Total Flux (Nalm-6 Tumor Burdon) (CD19+ Nalm6 tumors [1]; day 41 post tumor implant, day 34 post T cell transfer): 716750 photons/second | Proportion of survival post tumor implant (CD19+ Nalm6 tumors [2]; day 0 post tumor implant): 100% | Proportion of survival post tumor implant (CD19+ Nalm6 tumors [2]; day 41 post tumor implant): 50.0% | Proportion of survival post tumor implant (CD19+ Nalm6 tumors [2]; day 43 post tumor implant): 50.0% | Cis Effect: Numbers of CAR+ Cells on Day 14 ([3]; cell dose 0.3 ×10e6): 1402.64 | Trans Effect: Numbers of GFP+ Cells on Day 14 ([3]; cell dose 0.3 ×10e6): 400.00 | Cis Effect: Numbers of CAR+ Cells on Day 14 ([3]; cell dose 1 ×10e6): 3789.89 | Trans Effect: Numbers of GFP+ Cells on Day 14 ([3]; cell dose 1 ×10e6): 332.75 | Kaplan-Meier Analysis of Animal Survival (percent survival) (CD19+ Nalm6 tumors [4]; day 0 post tumor implant): 100% | Kaplan-Meier Analysis of Animal Survival (percent survival) (CD19+ Nalm6 tumors [4]; day 41 post tumor implant): 100% | Day 14 Plasma IFNgamma Levels [5]: 13,344 pg/mL | Day 14 Plasma IL10 Levels [5]: 6.9 pg/mL | Day 14 Plasma IL 12 Levels [5]: 2,434 pg/mL
